{"source": "paper PMC12650235", "about": "“Optimized Aptamer-Conjugated Gold Nanoparticles for Specific Detection of GII.4 Human Norovirus in Feces”", "key": {"[1]": {"tested_on": "GII.4 HuNoV VLP (VP1 capsid) (Human norovirus GII.4 Hu/GII.4/DBM15-156/2015)", "experiment": "BLI", "settings": "BLI: PBST + 5 mM Mg2+, biotin-aptamer 100 nM, VLP 18.75-150 nM, Octet RED96, ELASA: VLP 3 ug/mL, aptamer 1 uM, CD: 10 mM Tris-HCl pH 7.4, 1.0 mM NaCl, 0.05 mM …"}, "[2]": {"tested_on": "GII.4 HuNoV VLP (VP1 capsid) (Human norovirus GII.4 Hu/GII.4/DBM15-156/2015)", "experiment": "ELASA", "settings": "BLI: PBST + 5 mM Mg2+, biotin-aptamer 100 nM, VLP 18.75-150 nM, Octet RED96; ELASA: VLP 3 ug/mL, aptamer 1 uM; CD: 10 mM Tris-HCl pH 7.4, 1.0 mM NaCl, 0.05 mM …"}, "GII.17 HuNoV VLP": {"biological_target": "GII.17 HuNoV VLP (Human norovirus GII.17 …, UniProt A0A0E3X5I8 1-540)", "experiment": "AuNP colorimetric competition; A620/A520 < 0.4; BLI: PBST + 5 mM Mg2+, biotin-aptamer 100 nM, VLP 18.75-150 nM, Octet RED96; ELASA: VLP 3 ug/mL, aptamer 1 uM; CD: 10 mM Tris-HCl pH 7.4, 1.0 mM NaCl, 0.05 mM MgCl2, room temperature", "settings": "protein: recombinant; chain copies: 180; label: biotin (5' in the colorimetric assay); stem-loops"}, "GII.2 HuNoV VLP": {"biological_target": "GII.2 HuNoV VLP (Human norovirus GII.2 Env/CHN/2016, UniProt A0A291L9K1 1-542)", "experiment": "AuNP colorimetric competition; A620/A520 < 0.4; BLI: PBST + 5 mM Mg2+, biotin-aptamer 100 nM, VLP 18.75-150 nM, Octet RED96; ELASA: VLP 3 ug/mL, aptamer 1 uM; CD: 10 mM Tris-HCl pH 7.4, 1.0 mM NaCl, 0.05 mM MgCl2, room temperature", "settings": "protein: recombinant; tags: His; chain copies: 180; label: biotin (5' in the colorimetric assay); stem-loops"}}}
{"molecule": "AACACGACCCACGTACCTGTGCGAGACACAGACCACCAAGGTGGGC [AP4-11]", "values": [{"measurement": "Kd", "setting": "[1]", "result": 2.28, "unit": "nM"}]}
{"molecule": "AACACGACCCACGTACCTGTGTGAGACACAGACCACCAAGGTGGGC [AP4-11-2 (C22T)]", "values": [{"measurement": "Kd", "setting": "[1]; 5 mM Mg2+, poor fit R2=0.86", "result": 4.62, "unit": "nM"}, {"measurement": "binding signal (% of AP4-11 (46% loss))", "setting": "[2]", "result": 54}]}
{"molecule": "AACACGACCCACGTACCTGTGCGAGACACAGACCACCAAGGTGGGC (structured_DNA)", "note": "[AP4-11]", "values": [{"measurement": "binding result", "setting": "GII.17 HuNoV VLP", "result": "no binding"}, {"measurement": "binding result", "setting": "GII.2 HuNoV VLP", "result": "no binding"}]}
